Experimental data as given in paper PMC6453779, “The Different Effects of Substrates and Nucleotides on the Complex Formation of ABC Transporters” (Structure(London, England:1993), 2019).

What was measured:
[1] = target: T1, ModBC-A⋅MoO4^2− (nucleotide row) (Archaeoglobus fulgidus, UniProt O30144); experiment: native mass spectrometry; format: binding; settings: 10 uM ATP and MgCl2 added to ModBC, ModA preloaded with molybdate; one and two ADP bound; C8E4
T1 construct: gene wtpC; nucleotide site on the NBDs (ModC); with Molybdate/tungstate transport system permease protein WtpB
T1 sequence (O30142 32-342 partner, one chain of several): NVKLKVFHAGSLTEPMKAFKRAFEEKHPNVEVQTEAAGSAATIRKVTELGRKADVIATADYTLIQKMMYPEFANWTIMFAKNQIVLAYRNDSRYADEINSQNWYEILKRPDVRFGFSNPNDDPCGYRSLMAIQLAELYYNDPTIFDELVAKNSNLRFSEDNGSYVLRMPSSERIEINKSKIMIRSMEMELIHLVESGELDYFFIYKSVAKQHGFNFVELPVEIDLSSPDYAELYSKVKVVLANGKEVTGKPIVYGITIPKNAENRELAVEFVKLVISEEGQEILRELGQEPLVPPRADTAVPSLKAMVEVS

BtuCD = target: T2, BtuCD (Escherichia coli, UniProt P06611); experiment: native mass spectrometry; format: binding; settings: free BtuCD population beside BtuCD-F, C8E4
T2 construct: gene btuD; BtuC2D2 tetramer without BtuF; pET19b-BtuCD in E. coli BL21(DE3), LDAO purified, MS in C8E4; theoretical mass 128,839 Da; with Vitamin B12 import system permease protein BtuC
T2 sequence (P06611 1-249): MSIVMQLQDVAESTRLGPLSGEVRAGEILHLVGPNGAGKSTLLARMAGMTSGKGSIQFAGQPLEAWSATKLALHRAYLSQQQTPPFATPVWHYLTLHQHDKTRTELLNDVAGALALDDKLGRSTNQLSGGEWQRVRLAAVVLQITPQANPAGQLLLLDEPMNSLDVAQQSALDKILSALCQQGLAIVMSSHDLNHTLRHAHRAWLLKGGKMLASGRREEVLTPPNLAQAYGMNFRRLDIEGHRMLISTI
T2 sequence (P06609 1-326 partner): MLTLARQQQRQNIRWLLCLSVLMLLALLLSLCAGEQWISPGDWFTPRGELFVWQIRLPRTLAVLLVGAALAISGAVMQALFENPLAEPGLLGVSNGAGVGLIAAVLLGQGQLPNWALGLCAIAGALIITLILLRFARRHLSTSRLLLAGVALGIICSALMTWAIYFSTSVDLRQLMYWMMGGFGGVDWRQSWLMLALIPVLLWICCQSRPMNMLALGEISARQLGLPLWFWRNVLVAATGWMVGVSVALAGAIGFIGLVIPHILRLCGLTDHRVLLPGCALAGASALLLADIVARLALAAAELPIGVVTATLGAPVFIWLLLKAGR

BtuCD-F = target: T3, BtuCD-F (Escherichia coli, UniProt P06611); experiment: native mass spectrometry; format: binding; settings: then BtuF, C8E4
T3 construct: gene btuD; BtuC2D2-F complex; BtuCD from pET19b-BtuCD in E. coli BL21(DE3), LDAO purified, MS in C8E4; BtuF residues 23-266; theoretical mass 158,253 Da; with Vitamin B12 import system permease protein BtuC
T3 sequence (P06611 1-249): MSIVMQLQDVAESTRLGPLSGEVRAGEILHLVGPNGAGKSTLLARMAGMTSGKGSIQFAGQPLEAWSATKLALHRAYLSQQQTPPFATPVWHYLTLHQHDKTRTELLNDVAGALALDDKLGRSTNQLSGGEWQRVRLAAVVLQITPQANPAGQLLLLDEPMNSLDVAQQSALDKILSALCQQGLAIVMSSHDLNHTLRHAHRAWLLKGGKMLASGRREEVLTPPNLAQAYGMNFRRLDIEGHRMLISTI
T3 sequence (P06609 1-326 partner): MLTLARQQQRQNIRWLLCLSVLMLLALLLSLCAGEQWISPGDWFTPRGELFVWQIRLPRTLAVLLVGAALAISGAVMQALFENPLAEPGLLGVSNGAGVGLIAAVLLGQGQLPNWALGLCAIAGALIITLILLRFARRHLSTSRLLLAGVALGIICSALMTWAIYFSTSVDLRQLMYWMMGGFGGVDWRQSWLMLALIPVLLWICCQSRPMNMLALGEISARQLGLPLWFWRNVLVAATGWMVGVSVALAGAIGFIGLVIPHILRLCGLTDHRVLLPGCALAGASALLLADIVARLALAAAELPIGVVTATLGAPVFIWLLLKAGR
T3 sequence (P37028 23-266 partner): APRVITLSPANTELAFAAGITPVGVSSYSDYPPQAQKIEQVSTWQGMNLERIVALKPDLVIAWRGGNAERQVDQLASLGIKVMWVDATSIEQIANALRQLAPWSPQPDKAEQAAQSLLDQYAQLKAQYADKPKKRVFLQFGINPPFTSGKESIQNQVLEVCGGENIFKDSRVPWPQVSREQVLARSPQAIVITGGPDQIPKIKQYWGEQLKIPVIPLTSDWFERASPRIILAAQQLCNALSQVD

[2] = target: T4, ModB, transmembrane subunit of ModBC of Archaeoglobus fulgidus (A. fulgidus, UniProt O30143 1-261); experiment: native MS; co-expressed and co-purified transporter alone, buffer exchanged into 200 mM ammonium acetate with 0.5% C8E4; settings: both partners purified
T4 construct: ModB, transmembrane subunit of the molybdate importer ModBC, A. fulgidus; construct pET19b-ModBC; source: E. coli BL21(DE3), co-purified as ModBC from membranes (DDM and C12E8, HisTrap, SEC)
T4 sequence: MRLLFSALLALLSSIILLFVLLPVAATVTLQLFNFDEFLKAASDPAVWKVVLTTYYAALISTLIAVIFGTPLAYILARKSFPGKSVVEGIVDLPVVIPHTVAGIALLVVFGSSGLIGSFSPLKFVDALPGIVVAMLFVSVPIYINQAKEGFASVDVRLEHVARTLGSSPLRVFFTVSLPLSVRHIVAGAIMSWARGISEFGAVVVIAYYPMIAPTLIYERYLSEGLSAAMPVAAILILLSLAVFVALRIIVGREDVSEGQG

[3] = target: T5, BtuC, transmembrane subunit of BtuCD of Escherichia coli (E. coli, UniProt P06609 1-326); experiment: as above; settings: both partners purified
T5 construct: BtuC, transmembrane subunit of the vitamin B12 importer BtuCD, E. coli; construct pET19b-BtuCD; source: E. coli BL21(DE3), co-purified as BtuCD from membranes (LDAO, HisTrap, SEC)
T5 sequence: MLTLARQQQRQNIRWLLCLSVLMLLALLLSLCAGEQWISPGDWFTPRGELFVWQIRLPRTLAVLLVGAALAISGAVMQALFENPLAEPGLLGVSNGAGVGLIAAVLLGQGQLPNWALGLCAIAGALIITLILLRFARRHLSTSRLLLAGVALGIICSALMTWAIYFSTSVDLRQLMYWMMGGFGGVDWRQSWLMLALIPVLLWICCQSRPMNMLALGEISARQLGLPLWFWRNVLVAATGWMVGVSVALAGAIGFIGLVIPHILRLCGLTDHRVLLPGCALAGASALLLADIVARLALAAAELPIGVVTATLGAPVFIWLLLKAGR

[4] = target: T6, vitamin B12 transporter BtuCD (BtuC2D2) of Escherichia coli (E. coli, UniProt P06609 1-326; P06611 1-249); experiment: native MS; BtuF and BtuCD incubated in a 1:2 molar ratio (BtuF:BtuCD) in 200 mM ammonium acetate with 0.5% C8E4; without ligand, or with 2 mM vitamin B12, dicyanocobinamide or vitamin B9 added to BtuF before buffer exchange, or 5 mM ATP/MgCl2 or 5 mM AMP-PNP added to BtuCD before buffer exchange, or vitamin B12 and ATP together; settings: both partners purified
T6 construct: BtuC, transmembrane subunit of the vitamin B12 importer BtuCD, E. coli; construct pET19b-BtuCD, gift from Kaspar Locher; Purified on a HisTrap column from pET19b-BtuCD; also called tetrameric transporter; source: E. coli BL21(DE3), purified from membranes (LDAO, HisTrap, Superdex 200 SEC); copies: 2 + 2
T6 sequence 1: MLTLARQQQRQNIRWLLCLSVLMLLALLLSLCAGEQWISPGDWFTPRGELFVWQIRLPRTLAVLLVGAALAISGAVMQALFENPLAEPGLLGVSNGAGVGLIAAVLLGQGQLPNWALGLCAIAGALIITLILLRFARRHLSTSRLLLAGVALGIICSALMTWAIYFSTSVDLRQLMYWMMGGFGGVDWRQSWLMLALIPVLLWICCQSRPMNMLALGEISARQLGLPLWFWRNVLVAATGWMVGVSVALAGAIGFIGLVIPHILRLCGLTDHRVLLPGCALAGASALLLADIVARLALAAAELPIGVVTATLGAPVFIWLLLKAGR
T6 sequence 2: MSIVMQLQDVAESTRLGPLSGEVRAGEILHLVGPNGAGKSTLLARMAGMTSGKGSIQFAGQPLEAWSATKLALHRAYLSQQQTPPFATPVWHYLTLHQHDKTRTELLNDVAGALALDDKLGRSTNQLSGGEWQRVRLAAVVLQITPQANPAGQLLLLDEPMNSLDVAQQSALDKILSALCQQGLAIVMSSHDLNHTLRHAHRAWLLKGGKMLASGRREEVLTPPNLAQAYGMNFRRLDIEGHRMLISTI

## Nc1ncnc2c1ncn2[C@@H]1O[C@H](COP(=O)(O)OP(=O)(O)O)[C@@H](O)[C@H]1O [ADP]
[1]
  observed mass of complex: an apo form and the species bound to one and two ADP molecules
BtuCD; 5 mM ATP and 5 mM MgCl2 added before buffer exchange
  bound species by mass: The presence of ADP-bound species of both BtuCD-F and BtuCD are observed
BtuCD-F; 5 mM ATP and 5 mM MgCl2 added to BtuCD before buffer exchange, one and two ADP bound
  observed mass of complex: two nucleotide-bound states with one and two ADP molecules bound

## Nc1ncnc2c1ncn2[C@@H]1O[C@H](COP(=O)(O)OP(=O)(O)NP(=O)(O)O)[C@@H](O)[C@H]1O [AMP-PNP, Adenosine 5’-(β,γ-imido)triphosphate]
BtuCD; 5 mM AMP-PNP added before buffer exchange
  bound species by mass: BtuCD was bound to the two different nucleotides in a similar fashion
BtuCD-F; 5 mM AMP-PNP added to BtuCD before buffer exchange, two bound
  observed mass of complex: apo-BtuCD-F as well as a population assigned to BtuCD-F⋅2AMP-PNP

B1: ModC, nucleotide binding subunit of ModBC of Archaeoglobus fulgidus (natural protein, A. fulgidus)
chain: MFLKVRAEKRLGNFRLNVDFEMGRDYCVLLGPTGAGKSVFLELIAGIVKPDRGEVRLNGADITPLPPERRGIGFVPQDYALFPHLSVYRNIAYGLRNVERVERDRRVREMAEKLGIAHLLDRKPARLSGGERQRVALARALVIQPRLLLLDEPLSAVDLKTKGVLMEELRFVQREFDVPILHVTHDLIEAAMLADEVAVMLNGRIVEKGKLKELFSAKNGEVAEFLSARNLLLKVSKILD
notes: construct pET19b-ModBC; source: E. coli BL21(DE3), co-purified as ModBC from membranes (DDM and C12E8, HisTrap, SEC)
[2]
  binding result: binds

B2: BtuD, nucleotide binding subunit of BtuCD of Escherichia coli (natural protein, E. coli)
chain: MSIVMQLQDVAESTRLGPLSGEVRAGEILHLVGPNGAGKSTLLARMAGMTSGKGSIQFAGQPLEAWSATKLALHRAYLSQQQTPPFATPVWHYLTLHQHDKTRTELLNDVAGALALDDKLGRSTNQLSGGEWQRVRLAAVVLQITPQANPAGQLLLLDEPMNSLDVAQQSALDKILSALCQQGLAIVMSSHDLNHTLRHAHRAWLLKGGKMLASGRREEVLTPPNLAQAYGMNFRRLDIEGHRMLISTI
notes: construct pET19b-BtuCD; source: E. coli BL21(DE3), co-purified as BtuCD from membranes (LDAO, HisTrap, SEC)
[3]
  binding result: binds

B3: periplasmic vitamin B12 substrate-binding protein BtuF of Escherichia coli (aa 23-266) (natural protein, E. coli, UniProt P37028 23-266, looked up)
chain: APRVITLSPANTELAFAAGITPVGVSSYSDYPPQAQKIEQVSTWQGMNLERIVALKPDLVIAWRGGNAERQVDQLASLGIKVMWVDATSIEQIANALRQLAPWSPQPDKAEQAAQSLLDQYAQLKAQYADKPKKRVFLQFGINPPFTSGKESIQNQVLEVCGGENIFKDSRVPWPQVSREQVLARSPQAIVITGGPDQIPKIKQYWGEQLKIPVIPLTSDWFERASPRIILAAQQLCNALSQVD
notes: also called SBP; source: E. coli BL21(DE3), purified (HisTrap, SEC; same protocol as ModA, final buffer with 10 mM DTT)
[4]
  uncomplexed BtuCD relative to BtuCD-F (100%), with dicyanocobinamide: 44%
  uncomplexed BtuCD relative to BtuCD-F (100%), with vitamin B9: 15%
  uncomplexed BtuCD relative to BtuCD-F (100%), with vitamin B12: 45%
  uncomplexed BtuCD relative to BtuCD-F, no substrate: 10%
  uncomplexed BtuCD relative to BtuCD-F, with AMP-PNP: 43%
  uncomplexed BtuCD relative to BtuCD-F, with ATP: 40%
